# Source: paper PMC7762955, “Antibiotic binding releases autoinhibition of the TipA multidrug-resistance transcriptional regulator” (The Journal of Biological Chemistry, 2020)
# B1: TipAH7 (TipAL residues 1-140), TipAN plus the α6-α7 region (domain or fragment, Streptomyces lividans, UniProt P0A4T9-1 1-140, looked up)
# chain: MSYSVGQVAGFAGVTVRTLHHYDDIGLLVPSERSHAGHRRYSDADLDRLQQILFYRELGFPLDEVAALLDDPAADPRAHLRRQHELLSARIGKLQKMAAAVEQAMEARSMGINLTPEEKFEVFGDFDPDQYEEEVRERWG
# notes: source: E. coli BL21 (DE3), purified (nickel-nitrilotriacetic acid, Superdex 200 SEC)
# B2: TipAH7: truncated protein consisting of TipAN and the α6–α7 region, TipAL residues 1–140 (protein)
# chain: MSYSVGQVAGFAGVTVRTLHHYDDIGLLVPSERSHAGHRRYSDADLDRLQQILFYRELGFPLDEVAALLDDPAADPRAHLRRQHELLSARIGKLQKMAAAVEQAMEARSMGINLTPEEKFEVFGDFDPDQYEEEVRERWG
# modifications: left off: His6, end not stated, state not stated
# B3: MtaCC (S15C/E138C), double-cysteine mutant of Mta (natural protein, Bacillus subtilis, UniProt P71039 1-257, looked up)
# chain: MKYQVKQVAEISGVCIRTLHHYDNIELLNPSALTDAGYRLYSDADLERLQQILFFKEIGFRLDEIKEMLDHPNFDRKAALQSQKEILMKKKQRMDEMIQTIDRTLLSVDGGETMNKRDLFAGLSMKDIEEHQQTYADCVRKLYGKEIAEETEKRTSAYSADDWRTIMAEFDSIYRRIAARMKHGPDDAEIQAAVGAFRDHICQYHYDCTLDIFRGLGEVYITDERFTDSINQYGEGLAAFLREAIIIYCDHQENPRP
# modifications: disulfide bonds between the introduced cysteines of two protomers (nonreduced sample)
# notes: as for B1
# B4: Mta: B. subtilis multidrug transporter activation protein, TipA-class (protein)
# chain: MKYQVKQVAEISGVSIRTLHHYDNIELLNPSALTDAGYRLYSDADLERLQQILFFKEIGFRLDEIKEMLDHPNFDRKAALQSQKEILMKKKQRMDEMIQTIDRTLLSVDGGETMNKRDLFAGLSMKDIEEHQQTYADEVRKLYGKEIAEETEKRTSAYSADDWRTIMAEFDSIYRRIAARMKHGPDDAEIQAAVGAFRDHICQYHYDCTLDIFRGLGEVYITDERFTDSINQYGEGLAAFLREAIIIYCDHQENPRP
# modifications: left off: His6, end not stated, state not stated
# B5: MtaCC (protein)
# chain: MKYQVKQVAEISGVCIRTLHHYDNIELLNPSALTDAGYRLYSDADLERLQQILFFKEIGFRLDEIKEMLDHPNFDRKAALQSQKEILMKKKQRMDEMIQTIDRTLLSVDGGETMNKRDLFAGLSMKDIEEHQQTYADCVRKLYGKEIAEETEKRTSAYSADDWRTIMAEFDSIYRRIAARMKHGPDDAEIQAAVGAFRDHICQYHYDCTLDIFRGLGEVYITDERFTDSINQYGEGLAAFLREAIIIYCDHQENPRP
# modifications: disulfide bonds between the introduced cysteines of two protomers (nonreduced sample); left off: His6, end not stated, state not stated
# B6: MtaH7: truncated protein containing the α6–α7 region, Mta residues 1–144 (protein, UniProt P71039 1-144, looked up, fragment)
# chain: MKYQVKQVAEISGVSIRTLHHYDNIELLNPSALTDAGYRLYSDADLERLQQILFFKEIGFRLDEIKEMLDHPNFDRKAALQSQKEILMKKKQRMDEMIQTIDRTLLSVDGGETMNKRDLFAGLSMKDIEEHQQTYADEVRKLYG
# B7: TipAN (TipAL residues 1-109), N terminus of TipAL (domain or fragment, Streptomyces lividans, UniProt P0A4T9-1 1-109, looked up)
# chain: MSYSVGQVAGFAGVTVRTLHHYDDIGLLVPSERSHAGHRRYSDADLDRLQQILFYRELGFPLDEVAALLDDPAADPRAHLRRQHELLSARIGKLQKMAAAVEQAMEARS
# notes: its limits may differ from this construct; source: E. coli BL21 (DE3), purified (nickel-nitrilotriacetic acid, Superdex 200 SEC)
# B8: TipAL, full-length thiostrepton-induced protein A of Streptomyces lividans (natural protein, UniProt P0A4T9-1 1-253, looked up)
# chain: MSYSVGQVAGFAGVTVRTLHHYDDIGLLVPSERSHAGHRRYSDADLDRLQQILFYRELGFPLDEVAALLDDPAADPRAHLRRQHELLSARIGKLQKMAAAVEQAMEARSMGINLTPEEKFEVFGDFDPDQYEEEVRERWGNTDAYRQSKEKTASYTKEDWQRIQDEADELTRRFVALMDAGEPADSEGAMDAAEDHRQGIARNHYDCGYEMHTCLGEMYVSDERFTRNIDAAKPGLAAYMRDAILANAVRHTP
# notes: also called WT TipAL; full-length TipAL; source: E. coli BL21 (DE3), purified (nickel-nitrilotriacetic acid, Superdex 200 SEC)
# B9: TipAL: full-length S. lividans TipA transcriptional regulatory protein (protein)
# chain: MSYSVGQVAGFAGVTVRTLHHYDDIGLLVPSERSHAGHRRYSDADLDRLQQILFYRELGFPLDEVAALLDDPAADPRAHLRRQHELLSARIGKLQKMAAAVEQAMEARSMGINLTPEEKFEVFGDFDPDQYEEEVRERWGNTDAYRQSKEKTASYTKEDWQRIQDEADELTRRFVALMDAGEPADSEGAMDAAEDHRQGIARNHYDCGYEMHTCLGEMYVSDERFTRNIDAAKPGLAAYMRDAILANAVRHTP
# modifications: left off: His6, end not stated, state not stated
# notes: full-length S. lividans TipA transcriptional regulatory protein
# B10: TipALCC (T15C/E134C), double-cysteine mutant of TipAL (natural protein, Streptomyces lividans, UniProt P0A4T9-1 1-253, looked up)
# chain: MSYSVGQVAGFAGVCVRTLHHYDDIGLLVPSERSHAGHRRYSDADLDRLQQILFYRELGFPLDEVAALLDDPAADPRAHLRRQHELLSARIGKLQKMAAAVEQAMEARSMGINLTPEEKFEVFGDFDPDQYEECVRERWGNTDAYRQSKEKTASYTKEDWQRIQDEADELTRRFVALMDAGEPADSEGAMDAAEDHRQGIARNHYDCGYEMHTCLGEMYVSDERFTRNIDAAKPGLAAYMRDAILANAVRHTP
# modifications: disulfide bonds between the introduced cysteines of two protomers (nonreduced sample)
# notes: as for B1
# B11: TipALCC (protein)
# chain: MSYSVGQVAGFAGVCVRTLHHYDDIGLLVPSERSHAGHRRYSDADLDRLQQILFYRELGFPLDEVAALLDDPAADPRAHLRRQHELLSARIGKLQKMAAAVEQAMEARSMGINLTPEEKFEVFGDFDPDQYEECVRERWGNTDAYRQSKEKTASYTKEDWQRIQDEADELTRRFVALMDAGEPADSEGAMDAAEDHRQGIARNHYDCGYEMHTCLGEMYVSDERFTRNIDAAKPGLAAYMRDAILANAVRHTP
# modifications: disulfide bonds between the introduced cysteines of two protomers (nonreduced sample); left off: His6, end not stated, state not stated
# How the values were obtained:
# [1] = target: SkgA (stationary-phase regulation of KatG protein), Caulobacter crescentus TipA-class transcriptional regulator, full length (Caulobacter crescentus); experiment: not stated; SkgA in solution (Fig. S2A); method not given
# [2] = target: SkgACC (S16C/E133C), double-cysteine mutant of SkgA (Caulobacter crescentus); experiment: cross-linking; disulfide bonds between introduced cysteines; reduced and nonreduced 15% SDS-PAGE, Coomassie Brilliant Blue staining
# [3] = target: the molecule itself; experiment: SEC; analytical SEC, Superdex 200 10/300, 40 μM protein, 20 mM Tris-HCl pH 7.5, 150 mM NaCl, 1 mM DTT
# [4] = tested on: tipA promoter DNA (ptipA); experiment: Fluorescence polarization assay, tipA promoter DNA binding; design: species or system Streptomyces lividans; settings: apo, FPA; for Kd: read-out: Kd, affinity with the tipA promoter DNA (ptipA)
# Protocol: (§1) Fluorescence polarization assays (FPAs) were performed to test the structure-based hypothesis that α6–α7 plays a key role in communication between the ligand-binding and DNA-binding regions. […] Parallel experiments were also performed for Mta and SkgA proteins, and consistent results were obtained.
# (§2) FPAs were performed in buffer consisting of 20 mM Tris-HCl, pH 7.5, 200 mM NaCl and 5% (v/v) glycerol at 298 K using a SpectraMax M5 microplate reader system (Molecular Devices, San Jose, CA, USA). The wavelengths of fluorescence excitation and emission were 486 and 525 nm, respectively. 26-bp dsDNA from the −10 and −35 regions of the tipA, mta, and skgA promoters with the sequences […], […], and […] were synthesized with a 5′-carboxyfluorescein label for the respective assays with TipAL, Mta, and SkgA proteins. For assays with thiostrepton supplementation, proteins were incubated with thiostrepton (Sigma) at a 1:1 ratio for 15 min prior to mixing with DNA in wells. Each well of a 384-well plate contained 10 nM of a fluorescently labeled DNA probe and different amounts of proteins with a final volume of 80 μl. DNA-free controls were included, and three replicates were performed for each reaction for each assay. The fluorescence polarization ΔP (in mP units) was calculated and fitted according to a one-site specific binding model using GraphPad Prism7 (GraphPad Software) with the function ΔP = ΔPmax[protein]/(Kd + [protein]).
# [5] = target: the molecule itself; experiment: cross-linking; disulfide bonds between introduced cysteines; reduced and nonreduced 15% SDS-PAGE, Coomassie Brilliant Blue staining
# [6] = target: mta promoter DNA; experiment: Fluorescence polarization assay, mta promoter DNA binding; design: species or system Bacillus subtilis; settings: apo, FPA; for Kd: read-out: Kd, affinity with mta promoter DNA
# Protocol: as §1, §2
# [7] = no antibiotic, 10 nM 5'-carboxyfluorescein-labeled 26-bp dsDNA, 20 mM Tris-HCl pH 7.5, 200 mM NaCl, 5% glycerol, 298 K, ex 486/em 525 nm, one-site binding fit, three replicates, n.b. = printed in picture, not defined
# [8] = 10 nM 5'-carboxyfluorescein-labeled 26-bp dsDNA, 20 mM Tris-HCl pH 7.5, 200 mM NaCl, 5% glycerol, 298 K, ex 486/em 525 nm, one-site binding fit, three replicates, n.b. = printed in picture, not defined
molecule,measurement,setting,value
"SkgA (stationary-phase regulation of KatG protein), Caulobacter crescentus TipA-class transcriptional regulator, full length (natural protein)",stoichiometry N,[1],2
"SkgACC (S16C/E133C), double-cysteine mutant of SkgA (natural protein)",stoichiometry N,[2],2
B1,stoichiometry N,[3],2
B2,lower DNA-binding affinity than N-terminal truncation,"[4]; TipAH7 vs TipAN, range printed jointly for the three H7 truncations",4–7 fold
same,Kd,[4]; [7],318 ± 58.5 nM
B3,stoichiometry N,[5],2
B4,Kd,[6]; [8],496 ± 70.3 nM
B5,specific binding with mta promoter DNA,[6]; double-cysteine mutant,did not show any specific binding
same,"Kd, affinity with mta promoter DNA",[6]; [8],n.b.
B6,lower DNA-binding affinity than N-terminal truncation,"[6]; MtaH7 vs MtaN, range printed jointly for the three H7 truncations",4–7 fold
same,Kd,[6]; [8],467 ± 67.4 nM
B7,stoichiometry N,[3],2
B8,stoichiometry N,[3],2
B9,Kd,[4]; [7],380 ± 56 nM
B10,stoichiometry N,[5],2
B11,ptipA DNA-binding ability,[4]; double-cysteine mutant,complete loss of DNA-binding ability
same,"Kd, affinity with the tipA promoter DNA (ptipA)",[4]; [7],n.b.
